Measured values reported in patent US20210188980A1 (SHANGHAI EPIMAB BIOTHERAPEUTICS, published 2021).
Positions count from the first letter of the chain named.

Key:
[1] = biological target: T1, recombinant human LAG-3-his protein (Novoprotein) (human, UniProt P18627 23-450); experiment: BLI Octet, Ab on AHC sensor, huLAG-3-his; test group 3
T1 construct: Bought; also called huLAG-3; not shown: His tag
T1 sequence (looked up): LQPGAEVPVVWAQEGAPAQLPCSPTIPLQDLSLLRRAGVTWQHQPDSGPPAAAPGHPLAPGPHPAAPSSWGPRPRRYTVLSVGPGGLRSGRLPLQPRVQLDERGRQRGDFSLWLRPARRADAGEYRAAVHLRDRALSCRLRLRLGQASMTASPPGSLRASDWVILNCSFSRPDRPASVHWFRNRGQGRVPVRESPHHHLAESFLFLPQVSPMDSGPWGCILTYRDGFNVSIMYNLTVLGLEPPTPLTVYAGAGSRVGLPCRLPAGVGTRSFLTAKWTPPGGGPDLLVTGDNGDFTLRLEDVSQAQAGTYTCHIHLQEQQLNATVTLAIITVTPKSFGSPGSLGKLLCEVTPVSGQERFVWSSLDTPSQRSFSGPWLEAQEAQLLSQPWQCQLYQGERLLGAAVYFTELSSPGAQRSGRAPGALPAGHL
Description: (§1) All 18 humanized antibodies (Table 34) and a chimeric antibody having the parental murine VH and VL domains (mAb747c) were ranked by dissociation rate constant (koff). Briefly, antibodies were characterized for affinities and binding kinetics by Octet®RED96 biolayer interferometry (Pall ForteBio LLC). Antibodies were captured by Anti-hIgG Fc Capture (AHC) Biosensors (Pall) at a concentration of 100 nM for 30 seconds. Sensors were then dipped into running buffer (1× pH7.2 PBS, 0.05% Tween 20, 0.1% BSA) for 60 seconds to check baseline. Binding was measured by dipping sensors into a single concentration of recombinant human LAG-3-his protein (Novoprotein). Dissociation was followed by dipping sensors into running buffer for 1200 seconds. The association and dissociation curves were fitted to a 1:1 Langmuir binding model using FortéBio Data Analysis software (Pall). In each test group, the off-rates of antibodies were able to be compared with that of mAb747c. The off-rate ratios were calculated by the off-rate of antibody to that of mAb747c of its group and were compared all together. The lower the ratio was, the higher was the affinity of the antibody.

[2] = biological target: T1, recombinant human LAG-3-his protein …; experiment: BLI Octet, Ab on AHC sensor, huLAG-3-his; test group 1
Description: as §1, with “9” for “18”, “25)” for “34)”, “Octet RED96” for “Octet®RED96”, “FortéBio” for “ForteBio”, “Anti-HIgG” for “Anti-hIgG”, “(Pall).” for “(Pall). In each test group, the off-rates of antibodies were able to be compared with that of mAb747c. The off-rate ratios were calculated by the off-rate of antibody to that of mAb747c of its group and were compared all together. The lower the ratio was, the higher was the affinity of the antibody.”
(§2) All 13 humanized antibodies (Table 39) and chimeric anti-LAG-3 antibody mAb747c having the parental murine VH and VL domains were ranked by dissociation rate constant (koff) in the same manner described in Example 9.1 supra. In each test group, the off-rates of antibodies were able to be compared with that of mAb747c. The off-rate ratios were calculated by the off-rate of antibody to that of mAb747c of its group and were compared all together. The lower the ratio was, the higher was the affinity of the antibody.

[3] = biological target: T1, recombinant human LAG-3-his protein …; experiment: as above; remark: listed apart in the source
Description: as §1, with “9” for “18”, “25)” for “34)”, “Octet RED96” for “Octet®RED96”, “FortéBio” for “ForteBio”, “Anti-HIgG” for “Anti-hIgG”, “(Pall).” for “(Pall). In each test group, the off-rates of antibodies were able to be compared with that of mAb747c. The off-rate ratios were calculated by the off-rate of antibody to that of mAb747c of its group and were compared all together. The lower the ratio was, the higher was the affinity of the antibody.”
The seven Fab clones were converted to full IgG proteins. Briefly, the VH and VL genes were produced synthetically and then cloned into vectors containing coding sequences for the human IgG1 and human kappa constant domains, respectively. The heavy chain and cognate light chain plasmids were co-transfected into HEK 293E cells, individually. After approximately six days of post-transfection cell culture, the supernatants were harvested and subjected to Protein A affinity chromatography. The affinity of purified antibodies was ranked by Octet® RED96 biolayer interferometry (see, Example 9.1, supra).

[4] = biological target: T1, recombinant human LAG-3-his protein …; experiment: BLI Octet, Ab on AHC sensor, huLAG-3-his; test group 2
Description: as §1, with “9” for “18”, “25)” for “34)”, “Octet RED96” for “Octet®RED96”, “FortéBio” for “ForteBio”, “Anti-HIgG” for “Anti-hIgG”, “(Pall).” for “(Pall). In each test group, the off-rates of antibodies were able to be compared with that of mAb747c. The off-rate ratios were calculated by the off-rate of antibody to that of mAb747c of its group and were compared all together. The lower the ratio was, the higher was the affinity of the antibody.”
as §2

B1: HumAb747-55 (antibody, human IgG1, V domains shown)
VH: EVQLVQSGAEVKKPGATVKISCKVSDFNIKDDYMHWVQQAPGKGLEWIGWIVPENGNTEYASKFQGRVTITADTSTDTAYLELSSLRSEDTAVYYCTVYGDYWGQGTTVTVSS
VL: DIQMTQSPSSLSASVGDRVTITCRASQEISGYLSWLQQKPGGAIKRLIYAASTLDSGVPSRFSGSRSGSDYTLTISSLEPEDFADYYCLQYASYPLTFGQGTKLELK
notes: humanized mAb747; human IgG1/kappa constant domains
Question: For B1, which koff [1] is on record?
Answer: 0.0119 s⁻¹

Question: What about the “off-rate ratio to that of mAb747c” value [1] of the same binder?
Answer: 972%

B2: HumAb747V-63 (antibody, human IgG1, V domains shown)
VH: EVQLVQSGAEVKKPGATVKLSCTASGFNIKDDYMHWVKQRPEQGLDWIGWIVPRNGNTMYASKFQGKATITADTSTNTAYLELSSLRSEDTAVYYCTVYGDYWGQGTTVTVSS
VL: B1 VL with T53A, E79Q
notes: engineered HumAb747-60 variant; human IgG1/kappa constant domains
Question: What does the source list for B2?
Answer: koff [2]: 0.000522 s⁻¹; off-rate ratio to that of mAb747c [2]: 85%

B3: B3-69-IgG (antibody, V domains shown)
VH: EVQLVQSGAEVKKPGASVKVSCKASGFNIKDDYMHWVRQAPGQGLEWIGWIVPENGNTHYASKFQGRVTITADTSINTAYMELSRLRSDDTAVYYCTVYGDYWGQGTTVTVSS
VL: B1 VL with T22N, G41E, A43T, A50E, E79Q, D85T, Q100G, L104V, L106I
notes: human IgG1/kappa constant domains
Question: What does the source list for B3?
Answer: koff [3]: 0.00359 s⁻¹; off-rate ratio to that of mAb747c [3]: 239%

B4: HumAb747-58 (antibody, human IgG1, V domains shown)
VH: B1 VH with I20L, K23T, V24A, Q38K, V68A, D77N
VL: B1 VL
notes: as for B1
Question: What does the source list for B4?
Answer: koff [1]: 0.00405 s⁻¹; off-rate ratio to that of mAb747c [1]: 331%

B5: HumAb747V-66 (antibody, human IgG1, V domains shown)
VH: B2 VH with R54E, M59V
VL: B1 VL with S56L, E79Q
notes: as for B2
Question: Which results are given for B5?
Answer: koff [2]: 0.000584 s⁻¹; off-rate ratio to that of mAb747c [2]: 95%

B6: HumAb747V-69 (antibody, human IgG1, V domains shown)
VH: B2 VH with R54E, M59V
VL: B1 VL with E79Q
notes: as for B2
Question: How did the koff [4] turn out when B6 was run?
Answer: 0.000357 s⁻¹

Question: What about the “off-rate ratio to that of mAb747c” value [4] of the same binder?
Answer: 53%

B7: HumAb747V-65 (antibody, human IgG1, V domains shown)
VH: B2 VH
VL: B1 VL with E79Q
notes: as for B2
Question: Which results are given for B7?
Answer: koff [2]: 0.000292 s⁻¹; off-rate ratio to that of mAb747c [2]: 47%

B8: HumAb747-57 (antibody, human IgG1, V domains shown)
VH: B1 VH with I20L, K23T, V24A
VL: B1 VL
notes: as for B1
Question: Which results are given for B8?
Answer: koff [1]: 0.00411 s⁻¹; off-rate ratio to that of mAb747c [1]: 335%

B9: HumAb747V-62 (antibody, human IgG1, V domains shown)
VH: B2 VH
VL: B1 VL with S56L, E79Q
notes: as for B2
Question: Which results are given for B9?
Answer: koff [2]: 0.00048 s⁻¹; off-rate ratio to that of mAb747c [2]: 78%
